Laboratory results taken from patent publication US20230400461A1 (TEKNOLOGIAN TUTKIMUSKESKUS VTT, published 2023).

T1: Staphylococcus aureus Enterotoxin A (Staphylococcus aureus, UniProt P0A0L2 25-257)
T1 sequence: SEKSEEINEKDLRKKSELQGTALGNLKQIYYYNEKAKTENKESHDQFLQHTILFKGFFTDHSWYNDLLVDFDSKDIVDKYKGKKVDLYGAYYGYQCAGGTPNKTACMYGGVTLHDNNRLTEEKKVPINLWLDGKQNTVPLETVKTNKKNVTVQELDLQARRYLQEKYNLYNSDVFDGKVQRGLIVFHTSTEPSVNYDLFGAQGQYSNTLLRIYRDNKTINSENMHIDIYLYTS

T2: Staphylococcus aureus Enterotoxin B (Staphylococcus aureus, UniProt P01552 28-266)
T2 sequence: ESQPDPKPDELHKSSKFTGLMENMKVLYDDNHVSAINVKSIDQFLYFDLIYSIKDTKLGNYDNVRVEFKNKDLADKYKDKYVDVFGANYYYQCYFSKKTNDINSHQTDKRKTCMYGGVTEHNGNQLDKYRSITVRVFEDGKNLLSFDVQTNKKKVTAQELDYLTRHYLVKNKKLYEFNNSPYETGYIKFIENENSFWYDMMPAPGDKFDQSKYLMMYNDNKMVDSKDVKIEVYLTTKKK

B1: anti-SEA (55) Fab (Fab, V domains shown)
VH: QVQLQQSGAELMKPGASVKISCKATGYTISSHWIEWVKQRPGHGLEWIGETLPGSGSTKYNEKFKGKATITADTSSNTAYMQLSSLTSEDSAVYYCARGDGNYGWFAYWGQGTLVTVSA
VL: DIVLTQSPALMAASPGEKVTITCSVSSSISSSNLHWYQQKSETSPKPWIYGTSNLASGVPVRFSGSGSGTSYSLTISSMEAEDAATYYCQQWSSYPLTFGAGTKLELK
B2: anti-SEA (90) Fab (Fab, V domains shown)
VH: EVQLQQSGPELVKPGASVKMSCKASGYTFTSYVMQWVKQKPGQGLEWIGYINPYNDGTKYNEKFKGKATLTSDKSSSTAYMELSSLTSEDSAVYYCARGDGVGGMDYWGQGTSVTVSS
VL: DIVMTQSPATLSVTPGDRVSLSCRASQSISDYLHWYQQKSHESPRLLIKYASQSISGIPSRFSGSGSGSDFTLSINSVEPEDVGVYYCQNGHSFPPTFGGGTKLEIK

How the values were obtained:
[1] = biological target: T1, Staphylococcus aureus Enterotoxin A
[2] = biological target: T2, Staphylococcus aureus Enterotoxin B; experiment: ELISA (screening; results not shown)

Binder | Kd [1] | koff [1] | kon [1] | binding result [2]
B1 | 3.6 nM | 0.00035 s⁻¹ | 97000 M⁻¹ s⁻¹ | no binding
B2 | 3 nM | 0.0013 s⁻¹ | 420000 M⁻¹ s⁻¹ | no binding
